Assay [1] has as its target T1, 6xHis-tagged recombinant SARS-CoV-2 (2019-nCoV) spike protein S1 + S2 extracellular domain (Severe acute respiratory syndrome …, UniProt P0DTC2).
T1 construct: SARS-CoV-2 (2019-nCoV) spike protein, S1 + S2 extracellular domain; lacks the cytoplasmic region; retains the S1/S2 cleavage regions; No catalogue number or limits are printed; also called recombinant S1 + S2; recombinant spike protein
The experiment in a line: ELISA; […] (40 ng/mL, 50 μL) […]. The conditions noted are these: one partner purified. Background: In an ELISA, binding on a coated surface is turned into a signal by an enzyme label.

In assay [2] the target is T2, SARS-CoV-2 spike 1099-1112 peptide (GTH peptide) (Severe acute respiratory syndrome …).
T2 construct: SARS-CoV-2 spike protein, residues 1099-1112, between HR1 and HR2 of the S2 domain
T2 chain: GTHWFVTQRNFYEP
Put plainly: SPR. To be noted: both partners purified.

Assay [3] has as its target T3, 6xHis-tagged recombinant SARS-CoV-2 (2019-nCoV) spike S2 extracellular domain (SARS-CoV-2, Wuhan (2019-nCoV), UniProt P0DTC2).
T3 construct: SARS-CoV-2 (2019-nCoV) spike protein, S2 extracellular domain; lacks the cytoplasmic region; No catalogue number or limits are printed; also called recombinant S2; S2 subunit of the recombinant spike protein
Put plainly: western blot; recombinant spike proteins separated by SDS-PAGE on nitrocellulose; 5G2 mAb 0.2 μg/mL, RT 1 h; anti-mouse IgG-F(ab')2-HRP. The conditions noted are these: both partners purified. A general note: In western blotting, separated proteins are transferred to a membrane and probed.

Assay [4] has as its target T4, spike protein (S1 + S2) of SARS-CoV-2 WT (Wuhan strain) (SARS-CoV-2, Wuhan (WT), UniProt P0DTC2).
T4 construct: uncleaved S1 + S2 spike protein of SARS-CoV-2 WT (Wuhan strain), as made by the virus; also called original Wuhan strain; the coronavirus
Put plainly: ELISA; wells coated with 1 × 10^5 heat-inactivated virus in PBS; 5G2 mAb added; anti-mouse IgG-F(ab')2-HRP, A450. The conditions noted are these: one partner purified.

Assay [5] concerns the target S2 subunit of the SARS-CoV-2 WT spike protein in infected Vero cells (SARS-CoV-2, Wuhan (WT), UniProt P0DTC2). Put plainly: western blot. The conditions noted are these: one partner purified.
Assay [6] has as its target T1, 6xHis-tagged recombinant SARS-CoV-2 …. Put plainly: western blot; recombinant spike proteins separated by SDS-PAGE on nitrocellulose; MBP-sc5G2-6xHis 0.8 μg/mL, RT 1 h; anti-MBP antibody and anti-mouse IgG-F(ab')2-HRP. To be noted: both partners purified.
Assay [7] concerns the target T3, 6xHis-tagged recombinant SARS-CoV-2 …. Described as above. To be noted: both partners purified.
Assay [8] concerns the target T4, spike protein (S1 + S2) of SARS-CoV-2 …. The experiment in a line: western blot. To be noted: one partner purified.
In assay [9] the target is T1, 6xHis-tagged recombinant SARS-CoV-2 …. The experiment in a line: western blot. To be noted: one partner purified.
In assay [10] the target is T3, 6xHis-tagged recombinant SARS-CoV-2 …. The experiment in a line: western blot. The conditions noted are these: one partner purified.
In assay [11] the target is T5, recombinant S2 subunit of the spike protein without 6xHis (SARS-CoV-2, Wuhan (WT), UniProt P0DTC2).
T5 construct: also called r-S2; recombinant S2 without 6xHis
The experiment in a line: western blot.

Consider five molecules from paper PMC11193732 (Scientific Reports, 2024).

B1: 5G2 monoclonal antibody (antibody, V domains shown)
VH: QIQLVQSGPELKKPGATVKISCKASGYTFTNYGMHWLKQTPGKVLKWMGLINTYTGEPKYADDFKGRFAFSLETSASTAYLQINNLRSEDTATYFCARKGLGLRPPMDSWGQGTSVTVSS
VL: QIVLSQSPAILSASPGEKVTMTCRASSSVNYMHWCQQKPGSSPKPLIHGTSNLASGVPGRFSGSGSGTSYSLTISRVEAEDAATYYCHQWNSYPLTFGAGTRLEL
notes: also called 5G2 mAb; mAb 5G2
The term Kd denotes the free concentration of one partner at which half of the binding sites on the other are occupied at equilibrium, for simple one-to-one binding. For B1, the binding result in [1], in assay [3], in [4] and in assay [5] was “binds” each time. The molecule also showed a dissociation constant Kd in assay [2] of 110 pM.

B2: MBP-sc5G2-6xHis produced by E. coli (refolded) (scFv, V domains shown)
VH: QIQLVQSGPELKKPGATVKISCKASGYTFTNYGMHWLKQTPGKVLKWMGLINTYTGEPKYADDFKGRFAFSLETSASTAYLQINNLRSEDTATYFCARKGLGLRPPMDSWGQGTSVTVSS
VL: QIVLSQSPAILSASPGEKVTMTCRASSSVNYMHWCQQKPGSSPKPLIHGTSNLASGVPGRFSGSGSGTSYSLTISRVEAEDAATYYCHQWNSYPLTFGAGTRLEL
notes: as the heavy chain variable region of m1; as the light chain variable region of m1; Same cDNA as m3, in pET22b; not shown: MBP, N-terminal, kept; 6xHis, C-terminal, kept
Turning to B2, the binding result in assay [6], in assay [7] and in assay [8] was “binds” each time.

B3: recombinant 5G2 (cloned heavy and light chains fused to mouse IgG constant γ1 and κ chains) (antibody, V domains shown)
VH: QIQLVQSGPELKKPGATVKISCKASGYTFTNYGMHWLKQTPGKVLKWMGLINTYTGEPKYADDFKGRFAFSLETSASTAYLQINNLRSEDTATYFCARKGLGLRPPMDSWGQGTSVTVSS
VL: QIVLSQSPAILSASPGEKVTMTCRASSSVNYMHWCQQKPGSSPKPLIHGTSNLASGVPGRFSGSGSGTSYSLTISRVEAEDAATYYCHQWNSYPLTFGAGTRLEL
notes: as the heavy chain variable region of m1; mouse IgG constant γ1 chain; as the light chain variable region of m1; mouse immunoglobulin constant κ chain; Mouse IgG1 kappa; also called recombinant heavy and light chains of 5G2; 293FT + cDNA
Regarding B3, the binding result in assay [9] and in assay [10] was “binds” throughout.

B4: MBP-sc5G2-6xHis produced by HEK293FT cells (scFv, V domains shown)
VH: QIQLVQSGPELKKPGATVKISCKASGYTFTNYGMHWLKQTPGKVLKWMGLINTYTGEPKYADDFKGRFAFSLETSASTAYLQINNLRSEDTATYFCARKGLGLRPPMDSWGQGTSVTVSS
VL: QIVLSQSPAILSASPGEKVTMTCRASSSVNYMHWCQQKPGSSPKPLIHGTSNLASGVPGRFSGSGSGTSYSLTISRVEAEDAATYYCHQWNSYPLTFGAGTRLEL
notes: as the heavy chain variable region of m1; as the light chain variable region of m1; The MBP cDNA came from the pMAL-p2 vector; not shown: MBP, N-terminal, kept; 6xHis, C-terminal, kept
B4: the binding result in assay [6], in assay [7] and in assay [8] was “binds” each time.

B5: sc5G2-6xHis produced by E. coli (refolded) (scFv, V domains shown)
VH: QIQLVQSGPELKKPGATVKISCKASGYTFTNYGMHWLKQTPGKVLKWMGLINTYTGEPKYADDFKGRFAFSLETSASTAYLQINNLRSEDTATYFCARKGLGLRPPMDSWGQGTSVTVSS
VL: QIVLSQSPAILSASPGEKVTMTCRASSSVNYMHWCQQKPGSSPKPLIHGTSNLASGVPGRFSGSGSGTSYSLTISRVEAEDAATYYCHQWNSYPLTFGAGTRLEL
notes: as the heavy chain variable region of m1; as the light chain variable region of m1; also called MBP-free sc5G2
As to B5, the binding result in [8] and in [11] was “binds” in each case.
